Test results published in US20260242478A1 (published 2026).
Where no end group is shown, it is not given here.

Assays:
Anti-PSMA Fab [1] = molecular target: T1, Anti-PSMA Fab; assay: phage ELISA; PSMA Fab on plate pre-incubated with PSMA antigen (competitor), anti-M13-HRP detection
T1 construct: Biotinylated and captured on neutravidin coated plates in the panning ELISA; also called 006 PSMA Fab
Method: (§1) Clonal phage were harvested as crude supernatants and screened via standard ELISAs. […] Prior to the addition of clonal phage. wells were incubated with blocking buffer and PSMA antigen or blocking buffer alone. Without washing or aspirating, clonal phage supernatants were then added to the wells and incubated for a short time. Wells were then washed followed by detection of bound phage using a horse radish conjugated anti-M13 antibody.

Anti-PSMA Fab [2] = molecular target: T1, Anti-PSMA Fab; assay: phage ELISA; biotinylated PSMA Fab on neutravidin plate, clonal phage supernatant, anti-M13-HRP detection;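 also: wells were preincubated with blocking buffer containing PSMA antigen or with blocking buffer only, then phage supernatant was added without washing for a brief incubation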
Method: as §1

PSMA Fab [3] = molecular target: T2, PSMA Fab; assay: clonal phage ELISA on captured PSMA Fab, wells pre-incubated with PSMA antigen as competitor, anti-M13-HRP detection;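 also: crude clonal phage supernatants added without washing after the PSMA preincubation, comparison wells received blocking buffer alone without PSMA, bound phage read after washing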
T2 construct: Biotinylated and captured on neutravidin plates in the phage ELISA; also called anti-PSMA Fab; 006 PSMA Fab
Method: as §1

PSMA Fab [4] = molecular target: T2, PSMA Fab; assay: clonal phage ELISA on biotinylated PSMA Fab captured on neutravidin plates, anti-M13-HRP detection, no PSMA antigen
Method: as §1

006 PSMA Fab [5] = molecular target: T3, 006 PSMA Fab; assay: phage ELISA; biotinylated PSMA Fab on neutravidin plate, wells pre-incubated with PSMA antigen as competitor, anti-M13-HRP detection
T3 construct: also called Anti-PSMA Fab
Method: as §1

006 PSMA Fab [6] = molecular target: T3, 006 PSMA Fab; assay: phage ELISA; biotinylated PSMA Fab on neutravidin plate, blocking buffer alone, anti-M13-HRP detection
Method: as §1

PSMA Fab (006 PSMA Fab) [7] = molecular target: T4, PSMA Fab (006 PSMA Fab); assay: phage ELISA; clonal phage on plate-captured PSMA Fab pre-incubated with PSMA antigen as competitor, anti-M13 HRP detection
T4 construct: also called Anti-PSMA Fab; anti-PSMA Fab
Method: as §1

PSMA Fab (006 PSMA Fab) [8] = molecular target: T4, PSMA Fab (006 PSMA Fab); assay: phage ELISA; clonal phage supernatant on biotinylated PSMA Fab captured on neutravidin plate, anti-M13 HRP detection
Method: as §1

EKPVCVPSWMCTGF (also called peptide-180 library clone) [Phage-2911]
Phage binding ELISA signal, Anti-PSMA Fab in presence of PSMA (Anti-PSMA Fab [1]): 0.098
Phage binding ELISA signal, Anti-PSMA Fab (Anti-PSMA Fab [2]): 2.33

B1: Phage-2905 (peptide)
peptide: PSHYCVPAWMCAGF
modifications: cysteine pairing not given here; also: peptide displayed as fusion to phage pIII
phage binding ELISA signal in presence of PSMA (PSMA Fab [3]): 0.0875
phage binding ELISA signal (PSMA Fab [4]): 2.33

VFPACVPNWMCVGF [Phage-2904]
phage binding ELISA signal in presence of PSMA (PSMA Fab [3]): 0.129
phage binding ELISA signal (PSMA Fab [4]): 2.33

B2: Phage-2891 (peptide)
peptide: EAHICRPLWMCTGF
notes: tested as crude clonal phage supernatant
Phage binding ELISA signal, Anti-PSMA Fab in presence of PSMA antigen (006 PSMA Fab [5]): 0.0899
Phage binding ELISA signal, Anti-PSMA Fab (006 PSMA Fab [6]): 2.36

B3: Phage-2923 (as printed at r2443/r2444; SEQ ID NO: 3238) (peptide)
peptide: VWPRCEPQWMCAGF
modifications: cysteine pairing not given here; also: peptide displayed as fusion to phage pIII
notes: tested as crude phage supernatant; The label 2923 is printed twice (r2444 and r2446); by the order this row is probably Phage-2922; also called probably Phage-2922
Phage binding ELISA signal, Anti-PSMA Fab with PSMA antigen (PSMA Fab (006 PSMA Fab) [7]): 0.0854
Phage binding ELISA signal, Anti-PSMA Fab (PSMA Fab (006 PSMA Fab) [8]): 2.31

MEIRCTPPWMCMGF [Phage-2899]
phage binding ELISA signal in presence of PSMA (PSMA Fab [3]): 0.0795
phage binding ELISA signal (PSMA Fab [4]): 2.34

LAIMCRPAWMCSGF (tested as crude phage supernatant) [Phage-2920]
Phage binding ELISA signal, Anti-PSMA Fab with PSMA antigen (PSMA Fab (006 PSMA Fab) [7]): 0.112
Phage binding ELISA signal, Anti-PSMA Fab (PSMA Fab (006 PSMA Fab) [8]): 2.31

ISHMCKPVWMCSGL (tested as crude phage supernatant) [Phage-2921]
Phage binding ELISA signal, Anti-PSMA Fab with PSMA antigen (PSMA Fab (006 PSMA Fab) [7]): 0.125
Phage binding ELISA signal, Anti-PSMA Fab (PSMA Fab (006 PSMA Fab) [8]): 2.31

VTPACVPTWMCYGF [Phage-2903]
phage binding ELISA signal in presence of PSMA (PSMA Fab [3]): 0.116
phage binding ELISA signal (PSMA Fab [4]): 2.34

ETPFCIPQWMCDGF [Phage-2892]
phage binding ELISA signal in presence of PSMA (PSMA Fab [3]): 0.123
phage binding ELISA signal (PSMA Fab [4]): 2.35

TPIFCVPAWMCSGF (tested as crude phage supernatant) [Phage-2925]
Phage binding ELISA signal, Anti-PSMA Fab with PSMA antigen (PSMA Fab (006 PSMA Fab) [7]): 0.0946
Phage binding ELISA signal, Anti-PSMA Fab (PSMA Fab (006 PSMA Fab) [8]): 2.31

LDVLCKPTWMCMGF (also called peptide-180 library clone) [Phage-2917]
Phage binding ELISA signal, Anti-PSMA Fab in presence of PSMA (Anti-PSMA Fab [1]): 0.0821
Phage binding ELISA signal, Anti-PSMA Fab (Anti-PSMA Fab [2]): 2.32

VTPKCVPMWMCAGF [Phage-2901]
phage binding ELISA signal in presence of PSMA (PSMA Fab [3]): 0.123
phage binding ELISA signal (PSMA Fab [4]): 2.34

B4: Phage-2889 (peptide)
peptide: MASLCVPSWMCTGF
notes: as for B2
Phage binding ELISA signal, Anti-PSMA Fab in presence of PSMA antigen (006 PSMA Fab [5]): 0.0629
Phage binding ELISA signal, Anti-PSMA Fab (006 PSMA Fab [6]): 2.36

QALMCVPEWMCLGF [Phage-2895]
phage binding ELISA signal in presence of PSMA (PSMA Fab [3]): 0.1
phage binding ELISA signal (PSMA Fab [4]): 2.35

GGLLCKPAWMCNWL (also called peptide-180 library clone) [Phage-2915]
Phage binding ELISA signal, Anti-PSMA Fab in presence of PSMA (Anti-PSMA Fab [1]): 0.116
Phage binding ELISA signal, Anti-PSMA Fab (Anti-PSMA Fab [2]): 2.32

B5: Phage-2887 (peptide)
peptide: SLPLCKPLWMCEGF
notes: as for B2
Phage binding ELISA signal, Anti-PSMA Fab in presence of PSMA antigen (006 PSMA Fab [5]): 0.0872
Phage binding ELISA signal, Anti-PSMA Fab (006 PSMA Fab [6]): 2.36

B6: Phage-2883 (peptide)
peptide: WDAKCVPRWMCDGF
notes: as for B2
Phage binding ELISA signal, Anti-PSMA Fab in presence of PSMA antigen (006 PSMA Fab [5]): 0.125
Phage binding ELISA signal, Anti-PSMA Fab (006 PSMA Fab [6]): 2.37

B7: Phage-2906 (peptide)
peptide: VEPSCVPYWMCLGF
modifications: cysteine pairing not given here; also: peptide displayed as fusion to phage pIII
notes: also called peptide-180 library clone
Phage binding ELISA signal, Anti-PSMA Fab in presence of PSMA (Anti-PSMA Fab [1]): 0.0835
Phage binding ELISA signal, Anti-PSMA Fab (Anti-PSMA Fab [2]): 2.33

GLALCKPEWMCIGF (also called peptide-180 library clone) [Phage-2914]
Phage binding ELISA signal, Anti-PSMA Fab in presence of PSMA (Anti-PSMA Fab [1]): 0.0815
Phage binding ELISA signal, Anti-PSMA Fab (Anti-PSMA Fab [2]): 2.32

AEMRCIPEWMCSGF (also called peptide-180 library clone) [Phage-2907]
Phage binding ELISA signal, Anti-PSMA Fab in presence of PSMA (Anti-PSMA Fab [1]): 0.118
Phage binding ELISA signal, Anti-PSMA Fab (Anti-PSMA Fab [2]): 2.33

VGKMCVPEWMCHGF (tested as crude phage supernatant) [Phage-2924]
Phage binding ELISA signal, Anti-PSMA Fab with PSMA antigen (PSMA Fab (006 PSMA Fab) [7]): 0.082
Phage binding ELISA signal, Anti-PSMA Fab (PSMA Fab (006 PSMA Fab) [8]): 2.31
